Measured values as given in the supplement of paper PMC9170038.

Tested on: MS2 coat protein
Assay: apparent KD of MS2 coat protein; designed switch direction (-1 OFF switch, 1 ON switch): -1; higher = weaker reporter binding
Outline: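 Three titration conditions were used: no input, 200 uM small-molecule ligand, and an oligonucleotide input. In each, SNAP-549-labelled MS2 coat protein was raised from 0.7 or 1.5 nM, doubling, to 3 µM over designed RNA switches transcribed on Illumina chips by stalled E. coli RNA polymerase. Curve fits of normalised cluster fluorescence gave values whose per-design median over clusters is the apparent KD.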

[1] = input ligand: microRNA oligo, concentration not stated
[2] = Eterna round: R95, input ligand: FMN 200 uM
[3] = Eterna round: R95, input ligand: microRNA oligo, concentration not stated
[4] = Eterna round: R95, input ligand: none

Row | Sequence | apparent KD of MS2 coat protein (input ligand: FMN 200 uM) [nM] | apparent KD of MS2 coat protein (input ligand: none) [nM] | apparent KD of MS2 coat protein [1] [nM] | apparent KD of MS2 coat protein [2] [nM] | apparent KD of MS2 coat protein [3] [nM] | apparent KD of MS2 coat protein [4] [nM]
1 | CUUGUGUGAGGAUAUGAAUUACCUGGUCAAACAGGCUCCUGUCAGAAGGCACAUGAGGAUCACCCAUGUGGGCA [Dibilela] (Eterna round: R97, puzzle: Exclusion 4) | 121 | 310 | – | – | – | –
2 | ACAAUGUCAGGAUAUGAACAGCGCGGUCACAAGGAUUGCUUUCAGAAGGGACAUGAGGAUCACCCAUGUCGAUA [Eternabot (L1) Solution 91] (Eterna round: R97, puzzle: Exclusion 4) | 23 | 20 | – | – | – | –
3 | UUUUUAUAUGAAGGAUAUACUUAACAUGAGGAUCACCCAUGUGGUGUUGUGAGUGAGUGAGUUUAGUAGAAGGUCAAUUAUUAU [JMF's solution 15] (Eterna round: R96, puzzle: Exclusion NG 2) | 719 | 271 | 390 | – | – | –
4 | AAUUAUUGAUGAGGAUAUUGUGGUGAAACACGACAAGAAGGCAUUUUUCACAUGAGGAUCACCCAUGUGAGCCUUGUGCAUAUA [Ex NG1 #62] (Eterna round: R96, puzzle: Exclusion NG 1) | 17.3 | 15.2 | 11.5 | – | – | –
5 | GUUUUCAGACGGAGAUCCUACAUGAGGAUCACCCAUGUCUCUCUUGCUAAUUGCUCGUCUUAUUCUCCUCUGUUCUC [Elimod 37 - Jieux - Sensor, turn-off variant 1] (Eterna round: R97, puzzle: Sensor, turn-off variant 1) | 80.8 | 100 | – | – | – | –
6 | CUAUGUGAUUAGGAUAUUACUGGGCUAUCGCCUUGAGAAGGAGUUACAUGAGGAUCACCCAUGUCAACGCGACC [Eternabot (L2) Solution 44] (Eterna round: R97, puzzle: Exclusion 6) | 17.8 | 19.1 | – | – | – | –
7 | UUUAAUUUUUUUUUUUUACAAGCUUUUUGCUCGUCUUAUACAUGAGGAUCACCCAUGUAGGUGAAGAGUAAAUUAUC [JMF 58] (puzzle: Sensor v3, turn-off variant 2) | – | – | – | 19.4 | 109 | 16.5
8 | CGGUGCUGAGGAUAUACAUGAGGAUCACCCAUGUGUGCCAGCUAGCUGACUGGCACUUGUAGAAGGCAGUACUG [JL-ex3-2.13 Brourd mod] (puzzle: Exclusion 3) | – | – | – | – | 12.4 | –
9 | UUGCUACCUUGGUACUCUACAAGCUUUUUGCUCGUUUUAACAUGAGGAUCACCCAUGUCUAGUGGAUCUGAUCGGGU [JL ViennaUCT Isreen mod 3] (puzzle: Sensor v3, turn-off variant 2) | – | – | – | 87.4 | 197 | 77.5
10 | GCCGUAAAUGUGAGGAUAUACCUAUGGAAACAUAGGUAGAAGGCACAUGAGGAUCACCCAUGUUCUCAAUCGGC [Mat - Exclusion 4 - Eli Mod - D6] (Eterna round: R97, puzzle: Brourd's mod of Exclusion 4) | 775 | 195 | – | – | – | –
11 | AACAUGUCAGGAUAUAUGACAUGGCUCUUCGGAGCAAGCUCAUAGAAGGGACAUGAGGAUCACCCAUGUAGAGC [Ex4-3: 21] (puzzle: Exclusion 4) | – | – | – | – | 21.7 | –
12 | UCUAGCUUUUUGCGUCAAGCAUUGAAGUCUGUGAUCGUAACAUGAGGAUCACCCAUGUAAGUUUUAUGUCGUCUUGU [JR_SV3TOV2_Sub098] (puzzle: Sensor v3, turn-off variant 2) | – | – | – | 47.8 | 41.4 | 63.3
13 | AAACAAAAGGCAGGAUAUCCUCGUCAACACCACAAGUCCACUCGGACAUGAGGAUCACCCAUGUAGGAGAAGGGCCAGAAAUAC [Bevearla] (Eterna round: R96, puzzle: Exclusion NG 2) | 88.8 | 19.6 | 17.5 | – | – | –
14 | ACUAGCUUUUUGCAUUUUAGGUUUGUUGCUUCGUAUGUAACAUGAGGAUCACCCAUGUAUUACUGAUGUCGUCGUUU [JR_SV3TOV2_Sub090] (puzzle: Sensor v3, turn-off variant 2) | – | – | – | 18.4 | 16.5 | 18.5
15 | GUUGCGUUUGUGAGGAUAUGCUGUUCCUUGGUUCGGCAGAAGGCACAUGAGGAUCACCCAUGUGGUGUCGUUCC [salish99_Bmod_ex4_053] (puzzle: Brourd's mod of Exclusion 4) | – | – | – | – | 14.6 | –
16 | GGUAUAUGAGGAUAUAGAUUCCUCGACAUGAGGAUCACCCAUGUAAGAUUGGGCCUAGAACUAGAAGGCGUGGCUU [Eternabot (L1) Solution 77] (Eterna round: R97, puzzle: Exclusion 5) | 72.1 | 128 | – | – | – | –
17 | UAAAAGCGAGGAUAUACAAACAGGUCCAAAACAUGUCUUGGACAUGAGGAUCACCCAUGUAGAAGGCGUAAAAG [Anleain] (Eterna round: R97, puzzle: Exclusion 2) | 558 | 90.6 | – | – | – | –

Row | Sequence | apparent KD of MS2 coat protein (input ligand: FMN 200 uM) [nM] | apparent KD of MS2 coat protein (input ligand: none) [nM] | apparent KD of MS2 coat protein [1] [nM] | apparent KD of MS2 coat protein [2] [nM] | apparent KD of MS2 coat protein [3] [nM] | apparent KD of MS2 coat protein [4] [nM]
18 | AGUACUAACACGAAAGUGUUAGUACAAUAAGCUUGUGGAACAUGAGGAUCACCCAUGUCCUCAUAAGCUCGUCUUAU [JL-sv3-2.12 mat747 mod] (puzzle: Sensor v3, turn-off variant 2) | – | – | – | 16.8 | 71.4 | 16.9
19 | UUAUUGUAUGUAGGAUAUGCGUAUUAUUAUUGGGCAGAAGGACAUGAGGAUCACCCAUGUAUGUUGUUGUUAUAUAUUAUAUAU [Title] (Eterna round: R96, puzzle: Exclusion NG 1) | 61 | 47.6 | 39.3 | – | – | –
20 | CCUGCGGACAAAGGAUAUUGCGGUGGCCGGCUCAGUAAAUCUAGCCAACAUGAGGAUCACCCAUGUAAGAAGGUUGCCGUUGGU [Qudice] (Eterna round: R96, puzzle: Exclusion NG 2) | – | – | 17 | – | – | –
21 | UGUUGUUACGCAGGAUAUUGUCAACAGGCAGUAGGAUAUCCGAAAGGAGAAGGACCGCCAACAGGCGAGAAGGGCGGGUUAACA [pwkr exNG2 2xF7 2xFMN.7] (Eterna round: R96, puzzle: Exclusion NG 2) | 369 | 323 | 167 | – | – | –
22 | ACAUGAGGAUCACCCAUGUAAACAUAAUGGCUGAUGUAGAGUCAGGAUAUGUGUGGCUAACAAUCGCAGAAGGGACAAGACUGG [Deportation 31 - Jieux - Exclusion NG 3] (Eterna round: R96, puzzle: Exclusion NG 3) | 23.5 | 31.8 | 19.2 | – | – | –
23 | CGAUAAAGGUGAGGAUAUGAGAAUAGAAAGAAAUCAGAAGGCACACAUGAGGAUCACCCAUGUGAGUUCUCGAGAUUACAUGGU [Prohibition 45 - Jieux - Exclusion NG 1] (Eterna round: R96, puzzle: Exclusion NG 1) | – | – | 10.8 | – | – | –
24 | AGCCCUGCAGGAUAUGUCGAGGAUAACAUGAGGAUCACCCAUGUGACCGAUUGUUAGACUGCAGAAGGGCAUGGGA [salish99_ex5_r4_304] (Eterna round: R97, puzzle: Exclusion 5) | 278 | 70.6 | – | – | – | –
25 | UCUCACUCAGGAUAUCUUCCGCAUGACAUGAGGAUCACCCAUGUGUGCAUGCCCUUUGGUAGAGAAGGGAGUGAGA [eternacac ex5r4 #5] (Eterna round: R97, puzzle: Exclusion 5) | 22.7 | 24.4 | – | – | – | –
26 | AUAACAAGCUUUUUGCUCGUCGUAUAUGACGCUCGAGUCACAUGAGGAUCACCCAUGUCUUCCUGUUUGAUUGUUGA [JR_SV3TOV2_Sub056] (puzzle: Sensor v3, turn-off variant 2) | – | – | – | 148 | 122 | 177
27 | GGUUGGCGAGGAUAUACAUGAGGAUCACCCAUGUGAGAGAAUAAAGUGAGAAAGAAAAGUAGAAGGCGCUGACG [Mat - Exclusion 3 - Mod of Salish D49] (puzzle: Exclusion 3) | – | – | – | 728 | 56.9 | 43.3
28 | UUGGACGGAGGAUAUGCAGCGAGUAAUACGAUCGAUCCAAAACAUGAGGAUCACCCAUGUAGAAGGCUGACCAA [Eternabot (L1) Solution 11] (Eterna round: R97, puzzle: Exclusion 2) | 174 | 71.2 | – | – | – | –
29 | GUAACAUGCUGGUGAUCAUACAUGAGGAUCACCCAUGUAACAAGCUUUUUGUUCGUCUUAUAAGAUCACCAGCAUGU [Stov1/9-B2] (Eterna round: R97, puzzle: Sensor, turn-off variant 1) | 18.4 | 19.8 | – | – | – | –
30 | AAUUAACAAGCGAGAUCCUACAUGAGGAUCACCCAUGUGCUCGUCUUAUAAAGUACUAUCACGAAAGUGAUAGUACA [Mat - Sensor v3 - turn-off var 1 - Eli Mod - D64] (puzzle: Sensor v3, turn-off variant 1) | – | – | – | 21.8 | 215 | 19.5
31 | CUAGCGGGUGUAGGAUAUCGGACUGUUUCAGUCUGAGAAGGACAUGAGGAUCACCCAUGUAUUGCUGCGUGAGUAGCACGCUAG [JL ENG1 3.98] (Eterna round: R96, puzzle: Exclusion NG 1) | 46.8 | 34.1 | 23.4 | – | – | –
32 | UAUAUAUAGUAAGGAUAUGUAUUUGUUUUAUAAACAGAAGGUACUGACAUGAGGAUCACCCAUGUUUUAGUGUGGGCAUGUAGA [JMF's solution 11] (Eterna round: R96, puzzle: Exclusion NG 1) | – | – | 32.8 | – | – | –
33 | GGUUGUUUUUUCCGUUCUUACAUGAGGAUCACCCAUGUUUCUUGUCGUGCUCGCGUUGCUCGUCUGUCUGUCUGUUG [salish99_TOv1_r3_073] (puzzle: Sensor v3, turn-off variant 1) | – | – | – | 48.5 | 34.3 | 56
